B1: SCNN1D (parent)
chain: FLGHHSFSVRPGTEATISIREDEV
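Note: lentivirally expressed fusions sorted by FACS into six bins by GFP to DsRed ratio, PSI derived from sequencing read proportions per bin multiplied by bin number.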

Variants of: B1
Assay: protein stability index of a GFP-peptide fusion (GPS, HEK-293T) (PSI 1-6); higher = more stable
Details: c terminus: a fixed tail appended
For FLGHHSFSVRPGTEATISITEDEV, the protein stability index was 1.79.
For FLGHHSFSVRPGTEATISIREDEW, the protein stability index was 1.44.
FLGHHSFSVRPGTEATISIREDER gave a protein stability index of 1.49.
FLGHHSFSVRPGTEATISIREDED gave a protein stability index of 2.15.
FLGHHSFSVRPGTEATISIREDEM gave a protein stability index of 2.75.
FLGHHSFSVRPGTEATISIREDEC gave a protein stability index of 1.81.
FLGHHSFSVRPGTEATISIREDEI gave a protein stability index of 1.8.
In the case of FWGHHSFSVRPGTEATISIREDEV, the protein stability index is reported as 2.4.
With FYGHHSFSVRPGTEATISIREDEV the protein stability index was 3.44.
FSGHHSFSVRPGTEATISIREDEV gave a protein stability index of 1.76.
For FKGHHSFSVRPGTEATISIREDEV, the protein stability index was 4.07.
FTGHHSFSVRPGTEATISIREDEV gave a protein stability index of 3.09.
FGGHHSFSVRPGTEATISIREDEV gave a protein stability index of 2.72.
FMGHHSFSVRPGTEATISIREDEV gave a protein stability index of 1.95.
With FQGHHSFSVRPGTEATISIREDEV the protein stability index was 1.95.
FLGHHSFSVRPGTEATISIRETEV gave a protein stability index of 2.07.
Work on FLGHHSFSVRPGTEATISIREMEV yielded a protein stability index of 2.45.
For FLGHHSFSVRPGTEATISIREVEV, the protein stability index was 1.57.
FLGHHSFSVRPGTEATISIRELEV gave a protein stability index of 1.51.
In the case of FLGHHSFSVRPGTEATISIREPEV, the protein stability index is reported as 1.74.
FLGHHSFSVRPGTEATISIREFEV showed a protein stability index of 1.73.
For FLGHHSFSVRPGTEATISIREEEV, the protein stability index was 2.11.
For FLGHHSFSVRPGTEATISIREWEV, the protein stability index was 1.77.
Variant FLGHHSFSGRPGTEATISIREDEV has a protein stability index of 3.44.
In the case of FLGHHSFSSRPGTEATISIREDEV, the protein stability index is reported as 2.12.
Work on FLGHHSFSPRPGTEATISIREDEV yielded a protein stability index of 2.18.
For FLGHHSFSNRPGTEATISIREDEV, the protein stability index was 2.6.
FLGHHSFSIRPGTEATISIREDEV gave a protein stability index of 2.26.
For FLGHHSFSVRPGTNATISIREDEV, the protein stability index was 1.82.
FLGHHSFSVRPGTYATISIREDEV gave a protein stability index of 1.19.
Variant FLGHHSFSVRPGTVATISIREDEV has a protein stability index of 2.18.
FLGHHSFSVRPGTHATISIREDEV showed a protein stability index of 2.11.
FLGHHSFSVRPGTKATISIREDEV showed a protein stability index of 1.93.
Variant FLGHHSFSVRPGTLATISIREDEV has a protein stability index of 1.92.
FLGHHSFSVRPGTQATISIREDEV showed a protein stability index of 2.13.
FLGHHSFSVRPGTEATLSIREDEV gave a protein stability index of 1.62.
In the case of FLGHHSFSVRPGTEATFSIREDEV, the protein stability index is reported as 1.36.
Variant FLGHHSFSVRPGTEATTSIREDEV has a protein stability index of 2.24.
Work on FLGHHSFSVRPGTEATESIREDEV yielded a protein stability index of 2.1.
For FLGHHSFSVRPGTEATHSIREDEV, the protein stability index was 2.23.
In the case of FLGHHSFSVRPGTEATRSIREDEV, the protein stability index is reported as 2.07.
FLGHHSFSVRPGTEATGSIREDEV showed a protein stability index of 2.38.
For FLGHHSFSVRPGTEATNSIREDEV, the protein stability index was 1.68.
Work on FLGHHSFSVRPGTEATMSIREDEV yielded a protein stability index of 1.75.
FLGHHSFSVRPGTEATDSIREDEV showed a protein stability index of 2.12.
Work on FLGHHSFSVRPGTEATKSIREDEV yielded a protein stability index of 2.32.
In the case of FLGHHSFSVRPGTEATYSIREDEV, the protein stability index is reported as 2.79.
FLGHHSFSVRPGTEAPISIREDEV gave a protein stability index of 1.85.
For FLGHHSFSVRPGTEAEISIREDEV, the protein stability index was 1.62.
Work on FLGHHSFSVRPGTEAFISIREDEV yielded a protein stability index of 2.04.
In the case of FLGHHSFSVRPGTEAYISIREDEV, the protein stability index is reported as 2.23.
For FLGHHSFSVRPGTEAAISIREDEV, the protein stability index was 2.37.
With FLGHHSFSVRPGTEAVISIREDEV the protein stability index was 2.25.
Variant FLGHHSFSVRPGTEAIISIREDEV has a protein stability index of 2.29.
Variant FLGHHSFHVRPGTEATISIREDEV has a protein stability index of 2.12.
With FLGHHSFKVRPGTEATISIREDEV the protein stability index was 1.57.
In the case of FLGHHSFDVRPGTEATISIREDEV, the protein stability index is reported as 3.02.
FLGHHSFPVRPGTEATISIREDEV showed a protein stability index of 3.49.
In the case of FLGHHSFIVRPGTEATISIREDEV, the protein stability index is reported as 2.04.
Work on FLGHHSFCVRPGTEATISIREDEV yielded a protein stability index of 4.76.
FLGHHSFVVRPGTEATISIREDEV showed a protein stability index of 1.8.
FLGHHSFSVRPGDEATISIREDEV gave a protein stability index of 1.63.
For FLGHHSFSVRPGREATISIREDEV, the protein stability index was 1.7.
FLGHHSFSVRPGMEATISIREDEV showed a protein stability index of 1.73.
With FLGHHSFSVRPGSEATISIREDEV the protein stability index was 1.18.
For FLGHHSFSVRPGIEATISIREDEV, the protein stability index was 1.44.
For FLGHHSFSVLPGTEATISIREDEV, the protein stability index was 1.41.
FLGHHSFSVFPGTEATISIREDEV showed a protein stability index of 1.66.
Variant FLGHHSFSVQPGTEATISIREDEV has a protein stability index of 2.49.
With FLGHHSFSVIPGTEATISIREDEV the protein stability index was 1.9.
FLGHHSFSVHPGTEATISIREDEV showed a protein stability index of 2.3.
In the case of FLGHHSFSVDPGTEATISIREDEV, the protein stability index is reported as 2.77.
Variant FLGHHSFSVSPGTEATISIREDEV has a protein stability index of 2.35.
For FLGHHSFSVWPGTEATISIREDEV, the protein stability index was 1.63.
In the case of FLGHHSFSVRPGTEATISIREDIV, the protein stability index is reported as 2.23.
Variant FLGHHSFSVRPGTEATISIREDGV has a protein stability index of 2.29.
In the case of FLGHHSFSVRPGTEATISIREDHV, the protein stability index is reported as 2.32.
In the case of FLGHHSFSVRPGTEATISIREDRV, the protein stability index is reported as 1.73.
For FLGHHSFSVRPGTEATISIREDTV, the protein stability index was 1.41.
For FLGHHSFSVRPGTEATISIREDKV, the protein stability index was 2.38.
FLGHHSFSVRPGTEATISIREDDV showed a protein stability index of 2.12.
FLGHHSFSVRPGTEATISIREDSV showed a protein stability index of 1.06.
Variant FLGHHSFSVRPGTEATISIREDAV has a protein stability index of 1.96.
For FLGHHSFSVRPGTEATISIREDVV, the protein stability index was 2.05.
With FLGHHSFSVRPGTEATISIREDQV the protein stability index was 1.65.
Work on FLGHHSFSVRPGTEATISKREDEV yielded a protein stability index of 2.14.
In the case of FLGHHSFSVRPGTEATISRREDEV, the protein stability index is reported as 2.06.
With FLGHHSFSVRPGTEATISSREDEV the protein stability index was 2.13.
Work on FLGHHSFSVRPGTEATISCREDEV yielded a protein stability index of 1.58.
Work on FLGHHSFSVRPGTEATISYREDEV yielded a protein stability index of 1.52.
Variant FLGHHSFSVRPGTEATISGREDEV has a protein stability index of 2.6.
Work on FLGHHSFSVRPGTEATISTREDEV yielded a protein stability index of 1.74.
Variant FLGHHSFSVRPGTEATISWREDEV has a protein stability index of 1.32.
FLGHHSFSVRPGTEATISNREDEV showed a protein stability index of 2.42.

Source: the supplement of paper PMC10567573
